Laboratory results published in patent WO2017205216A1 (dated 2017).

Molecular target: T1, murine PD-L1 (murine, UniProt Q9EP73 19-238, limits assumed)
T1 construct: also called PD-Ll; mouse target protein
Assay: not described; stated in Example 1

T1 sequence (Q9EP73 19-238 limits assumed): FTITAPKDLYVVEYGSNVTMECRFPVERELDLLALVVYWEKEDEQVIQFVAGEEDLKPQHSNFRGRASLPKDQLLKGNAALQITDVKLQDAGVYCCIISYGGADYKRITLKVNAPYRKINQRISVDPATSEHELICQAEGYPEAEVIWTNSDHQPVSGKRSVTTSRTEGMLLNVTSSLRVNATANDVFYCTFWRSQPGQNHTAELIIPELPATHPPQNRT

B1: anti-murine PD-L1 clone 178G7 (antibody, V domains shown)
VH: QVQLQQSGADLAKPGSSVKISCKASGYNFNSYYINWIKQTTGQGLEYIGYINTVSGTTKYSEKFKGKATLTVDKSSSTAFMQLSSLTPDDSAVYYCARGTIVLDDYWGQGVKVTVSS
VL: DIVMTQTPSSQAVSAGEKVTMSCKSSQSLLYNEKKKNYLAWYQQKPGQSPKLLIYWASTRESGVPDRFLGSGSGTDFTLTINSVQAEDLAVYYCQQSYDFPRTFGGGTKLELKR
notes: also called anti-PD-L1 antibody; anti-PD-L1 therapy
B1: binds.
